Data on 18 sequences can be found in the NTF2 design screens of Basanta et al. (2020).

This series in a line: protease stability score; higher = more stable; yeast display proteolysis, trypsin and chymotrypsin.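 Further: relative to predicted unfolded state with 0 unfolded-like and 1 meaning tenfold more protease.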
Regarding “SEEDEEAERWVRMLEHLIRTGDEEILNSFADPNVRYIQGDKHLHGRETVYEYLEELWRKLGVDHMNIKDRHLRVFNGRVHLQLFVHFTVNGRSFDSILRFDTIKIDGQWHMHRIVVEII”, the protease stability score turned out to be 1.31.
The figure for “DEHEENVRKDIKEHEETEKTGDEKAYLEMADPHVKVDIDGVDLHGMERVTNFYRELLHKFPNIRIHTRHVDVQGEKVHVETELEWNGVKLETELVWVKINGRWLTHEIHIR” is 1.2.
Sequence “SEEMHWAKEFYKALLKSWRTGDEELIKDLMDPHVRLHYGDKELHGREEFVRFIQEHVSRVDHIDIHIDDMKLQGNKVHVDGIIIIHVNGRDINIRSEYIIYKVDGRWHLETVHIH” showed a protease stability score of 1.59.
“TEEEKSLKEVLERYIKAIRTGDWEILRHLADPRTRMDINGRDIHGMEEITNELVEQIRRFDHIDFKFHHIEVYGDKADVHGTLVIKINGVEIRHSTKEFWYKVNGRWILHHSEIH” gave a protease stability score of 1.21.
The sequence “DEDTRESEKMLSEILESHLTGNWRMIRHLADPHVRVEIGDKTYHGRDNLKRIFLDLLEKLGVDHMEFRDIHIRVQGDKLHIHIKVDLIVGDKVDIMQSHIHVEKINGRWYVHLVHWRLT” showed a protease stability score of 0.817.
With “SEEEDISRNLLEIFLRVLLTGDEHAISRLLDPRVLVIFHFENRDIILHGRSNVLKWLHDRLREIRINDWSVKSVEVQGNKAHQDTRIDIIIGDKKIDKEVEVNITVVDGKVKHLEIRVH”, the protease stability score is 2.21.
Regarding “DEEHEEYMDWAIIHLHDWLTGDEDHHNELADPNDRLELVIGDKRIERIGREEVTKQLHEFRKHMRVHRIEIKTRNVYNGKAHLHGIMHFRVGDKKYDVETHIVIVIINGVLKQVKIEIR”, the protease stability score is 0.773.
The result for “DEERELLDHLAKFILSVVRTGDWESMLRMADPNARIQIDGREYHGMDFFIRHWWELGIDHERIDKIDIQGDKLFIHRTLEYDGQEIDSELYIIVINGKLKSIDIRIR” reads 0.764; that for “DEEHRLSHEIEKHLEDDLRTGDFHHFIKQVDPNTRVRYGDKRLHGMHAVIWTLEHLGIDVFHLTDSHTFENRVVVHVRLEQGDFTMSVEVHATKVNGRWIVTKINFHHS”, 0.023; that for “SDMDEMISRFRREVEHSMQTGDERFDHEMADPHARFWINGVLFHGRHALEMWKEELGVDNFKIRHIHIRDEKIQGNKITLDVEYHLLVNGQQVDLRVILIYRKVNGKWTLEEERLV”, 0.851.
The result for “DHEEKHMIKIARLILLLWFTGDEDTFSRLADPNVRVIIIWNGKEIHSHGMERFSEDRKRHEEEMRLKDFRIDEVRAVGDKIHMRVTIHLIQGDKEREIDLEIRIVLVNGKLKTIEFIFH” reads 2.63; that for “SEIDEFSEKAFRLLLETLQTGDWRLTSELVDPNVRVHFEGHEHVGMEEVSKVVRHWRVKRIELKHLEVIGEKMHMILHQDIEVNGQRVRTDMIVTADKIDGVWLLTEVRIK”, 1.59.
The figure for “DEDEEDIRKAVKDFSENFQTGDEDRFKELADPNDRMHVNGREVHGRENIVKSLREEWKRLGVDHIHFEVRRITVQGEKIIVFSFLRIDNENERHHEDVLIIMRKVDGRWMIRTIRVR” is 1.45; for “DEDHEILHRLWELLIKLLKTGDEEIMKRLADPDTKVEAEGRKLIGRDEFVKWMREFSKRFDHVEIRFKRMHIINGRVYMNGHIVEQQGEYQYRQDTIIVSEKVDGRWLITHIHIE” it is 1.44; for “SEEERFVEEMLRHFLTNFLTGDWDKVAKLADPDTRSLIGDKHSHGRERVIDVLTYVVEEWRWKEFRVHRTTSIGEKAHSDTETDGNYNGVDVRSRSYIHFEVVNGRMSQIHLIFV” it is 0.694.
Regarding “DEENHHTREIFKMTLKEVFTGNEEMTTRLLDPHVRVQVGDKTIHGWKHFTHIFFRLRHEFGVDHVQLRHLEIIGNKAVIHFSVYVGEWTYEFTIHALKVNGRWVLESLEVHQI”, the protease stability score is 1.5.
Sequence “DEFHHLLELFLKLLAEQSRTGDEDSFERLFDPNVRVDINGRELHGWEAYQETRDRLGIERFDLRRIHSHTVNVVNGQVHMDMRTDGVIGDKRIDRTIHIRTTKINGRWFFTHLEWE” showed a protease stability score of 0.578.
The figure for “SEKDDHALRVLEEYLHLFLTGNEEVMERLVDPHVRFIYGDKEFHGRELMIRWIREEREQYDHIHWEIRHFESQGDKAHSEVELRIRQGDKRIHVDMHIHIEVVNGRWKRIEVRER” is 1.78.
